The values that follow come from paper PMC5431093, “A HAND to TBX5 Explains the Link Between Thalidomide and Cardiac Diseases” (Scientific Reports, 2017).

Read-outs that look alike come from different tables or passages of the source.

In assay [1] the target is HA-tagged TBX5 (murine Tbx5 isoform A) (mouse) (UniProt P70326). The assay can be described thus: co-IP; nuclear extracts of separately transfected HEK293 cells mixed (100 ug each), anti-HA on Protein A/G Dynabeads, 2 h, alone or with DMSO; blot with anti-Flag, re-blot with anti-HA.
Assay [2] has the same target. Described as above. This is another data set of the same source.
The target in assay [3] is T1, HA-tagged TBX5 (murine Tbx5 isoform A) (mouse, UniProt P70326 1-518).
T1 sequence (looked up): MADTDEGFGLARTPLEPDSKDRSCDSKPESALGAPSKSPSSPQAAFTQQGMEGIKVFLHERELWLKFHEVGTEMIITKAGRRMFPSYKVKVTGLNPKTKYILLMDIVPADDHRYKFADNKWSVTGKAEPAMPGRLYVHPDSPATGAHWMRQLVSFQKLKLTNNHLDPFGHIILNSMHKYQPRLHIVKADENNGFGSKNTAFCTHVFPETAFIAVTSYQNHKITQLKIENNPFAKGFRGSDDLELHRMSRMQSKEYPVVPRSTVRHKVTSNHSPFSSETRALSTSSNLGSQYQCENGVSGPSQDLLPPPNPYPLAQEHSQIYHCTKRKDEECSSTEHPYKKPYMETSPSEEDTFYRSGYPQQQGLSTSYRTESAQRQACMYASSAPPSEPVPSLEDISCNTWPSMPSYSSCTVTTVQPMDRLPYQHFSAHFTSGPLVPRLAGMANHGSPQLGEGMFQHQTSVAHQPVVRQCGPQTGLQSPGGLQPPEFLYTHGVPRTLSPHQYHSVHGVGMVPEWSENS
The assay can be described thus: cell-based or functional assay.

Take “Flag-tagged HAND2 p.G202V variant (from UniProt Q61039 1-217) (natural protein)”: the results for the percent inhibition of the co-precipitation against wild-type HAND2 in assay [1] and in assay [2] were below 90% and below 80%, respectively.

B1: Flag-tagged HAND2 wild type (natural protein, mouse, UniProt Q61039 1-217, looked up)
chain: MSLVGGFPHHPVVHHEGYPFAAAAAAAAAAAASRCSHEENPYFHGWLIGHPEMSPPDYSMALSYSPEYASGAAGLDHSHYGGVPPGAGPPGLGGPRPVKRRGTANRKERRRTQSINSAFAELRECIPNVPADTKLSKIKTLRLATSYIAYLMDLLAKDDQNGEAEAFKAEIKKTDVKEEKRKKELNEILKSTVSSNDKKTKGRTGWPQHVWALELKQ
In the case of B1, the “synergistic activation of the rat NPPA promoter coupled to luciferase in HEK293 cells co-transfected with TBX5 and HAND2” value in assay [3] is at most 22 fold.
